Source: article PMC5974397, “Oligomeric states of microbial rhodopsins determined by high-speed atomic force microscopy and circular dichroic spectroscopy” (Scientific Reports, 2018)
Where “and” joins values, the source holds several entries; their conditions need not be identical. Equal values may be shown once. One block for each molecule: values may come before it.

What was measured:
[1] = target: Quadrisphaera actinorhodopsin (Quadrisphaera sp. R2A-380-A); assay: high-speed atomic force microscopy (HS-AFM); protein reconstituted in asolectin lipid membrane of limited size with MSP1E3D1, on APTES-treated mica; 20 mM Tris-HCl (pH 8.0), 50 mM NaCl, room temperature; oligomer seen subunit by subunit
[2] = target: KR2_(278) (Krokinobacter eikastus); assay: high-speed atomic force microscopy (HS-AFM); protein reconstituted in asolectin lipid membrane with MSP1E3D1, on APTES-treated mica; acidic solution: 20 mM citrate-NaOH (pH 4.3), 50 mM NaCl, room temperature
[3] = target: KR2_(278) (Krokinobacter eikastus); assay: high-speed atomic force microscopy (HS-AFM); protein reconstituted in asolectin lipid membrane of limited size with MSP1E3D1, on APTES-treated mica; 20 mM Tris-HCl (pH 8.0), 50 mM NaCl, room temperature; oligomer seen subunit by subunit
[4] = target: Kineococcus radiotolerans actinorhodopsin (Kineococcus radiotolerans); assay: as above
[5] = target: Parvularcula oceani xenorhodopsin (Parvularcula oceani); assay: circular dichroism spectroscopy (visible, exciton coupling of retinals); protein reconstituted in POPE/POPG (3:1) liposomes, protein:lipid 1:50; 100 mM NaCl, 20 mM Tris-HCl (pH 8.0), 25 °C
[6] = target: Parvularcula oceani xenorhodopsin (Parvularcula oceani); assay: high-speed atomic force microscopy (HS-AFM); protein reconstituted in asolectin lipid membrane of limited size with MSP1E3D1, on APTES-treated mica; 20 mM Tris-HCl (pH 8.0), 50 mM NaCl, room temperature; oligomer seen subunit by subunit
[7] = target: Krokinobacter eikastus rhodopsin 2 (Krokinobacter eikastus); assay: circular dichroism spectroscopy (visible, exciton coupling of retinals); protein solubilized in DDM
[8] = target: Krokinobacter eikastus rhodopsin 2 (Krokinobacter eikastus); assay: high-speed atomic force microscopy (HS-AFM); protein reconstituted in asolectin lipid membrane of limited size with MSP1E3D1, on APTES-treated mica; 20 mM Tris-HCl (pH 8.0), 50 mM NaCl, room temperature; oligomer seen subunit by subunit
[9] = target: Anabaena sensory rhodopsin (Anabaena sp. PCC7120); assay: circular dichroism spectroscopy (visible, exciton coupling of retinals); protein reconstituted in POPE/POPG (3:1) liposomes, protein:lipid 1:50; 100 mM NaCl, 20 mM Tris-HCl (pH 8.0), 25 °C
[10] = target: Anabaena sensory rhodopsin (Anabaena sp. PCC7120); assay: high-speed atomic force microscopy (HS-AFM); protein reconstituted in asolectin lipid membrane of limited size with MSP1E3D1, on APTES-treated mica; 20 mM Tris-HCl (pH 8.0), 50 mM NaCl, room temperature; oligomer seen subunit by subunit
[11] = target: Fulvimarina rhodopsin (Fulvimarina pelagi); assay: as above
[12] = target: the molecule itself; assay: as above
[13] = target: T1, Natronomonas pharaonis sensory rhodopsin II (Natronomonas pharaonis), P42196; assay: as above; details: remark: other sources report otherwise
T1 chain: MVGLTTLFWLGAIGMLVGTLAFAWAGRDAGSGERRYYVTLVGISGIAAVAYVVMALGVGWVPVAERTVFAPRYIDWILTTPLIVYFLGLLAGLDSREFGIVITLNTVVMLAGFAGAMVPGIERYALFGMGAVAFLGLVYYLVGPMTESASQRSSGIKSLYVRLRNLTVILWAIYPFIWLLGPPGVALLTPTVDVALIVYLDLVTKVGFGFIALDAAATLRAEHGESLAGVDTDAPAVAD

Molecule: Quadrisphaera actinorhodopsin (natural protein)
stoichiometry N [1]: 5

Molecule: Kineococcus radiotolerans actinorhodopsin (natural protein)
stoichiometry N [4]: 5

B1: Natronomonas pharaonis halorhodopsin (natural protein, UniProt P15647 1-291, looked up)
chain: MTETLPPVTESAVALQAEVTQRELFEFVLNDPLLASSLYINIALAGLSILLFVFMTRGLDDPRAKLIAVSTILVPVVSIASYTGLASGLTISVLEMPAGHFAEGSSVMLGGEEVDGVVTMWGRYLTWALSTPMILLALGLLAGSNATKLFTAITFDIAMCVTGLAAALTTSSHLMRWFWYAISCACFLVVLYILLVEWAQDAKAAGTADMFNTLKLLTVVMWLGYPIVWALGVEGIAVLPVGVTSWGYSFLDIVAKYIFAFLLLNYLTSNESVVSGSILDVPSASGTPADD
modifications: retinal chromophore
notes: Halorhodopsin (chloride pump) from Natronomonas pharaonis; also called NpHR
stoichiometry N [12]: 3

B2: green-absorbing proteorhodopsin (natural protein, uncultured marine gamma proteobacterium, UniProt Q9F7P4 18-249, looked up)
chain: AGGGDLDASDYTGVSFWLVTAALLASTVFFFVERDRVSAKWKTSLTVSGLVTGIAFWHYMYMRGVWIETGDSPTVFRYIDWLLTVPLLICEFYLILAAATNVAGSLFKKLLVGSLVMLVFGYMGEAGIMAAWPAFIIGCLAWVYMIYELWAGEGKSACNTASPAVQSAYNTMMYIIIFGWAIYPVGYFTGYLMGDGGSALNLNLIYNLADFVNKILFGLIIWNVAVKESSNA
modifications: retinal chromophore
notes: Green-absorbing proteorhodopsin (GPR), proton pump, from uncultured marine gamma proteobacterium; Pentamers (76%) and hexamers (24%) coexist in the lipid; copies gives the dominant form; also called green proteorhodopsin
stoichiometry N [12]: 5 and 6

B3: Gloeobacter rhodopsin (natural protein, Gloeobacter violaceus PCC 7421, UniProt Q7NP59 1-298, looked up)
chain: MLMTVFSSAPELALLGSTFAQVDPSNLSVSDSLTYGQFNLVYNAFSFAIAAMFASALFFFSAQALVGQRYRLALLVSAIVVSIAGYHYFRIFNSWDAAYVLENGVYSLTSEKFNDAYRYVDWLLTVPLLLVETVAVLTLPAKEARPLLIKLTVASVLMIATGYPGEISDDITTRIIWGTVSTIPFAYILYVLWVELSRSLVRQPAAVQTLVRNMRWLLLLSWGVYPIAYLLPMLGVSGTSAAVGVQVGYTIADVLAKPVFGLLVFAIALVKTKADQESSEPHAAIGAAANKSGGSLIS
modifications: retinal chromophore
notes: Gloeobacter rhodopsin (GR), proton pump, from Gloeobacter violaceus PCC 7421; also called GR; rhodopsin from Gloeobacter violaceus PCC 7421; not shown: His6, C-terminal, kept
stoichiometry N [12]: 5

Second part, the molecule after the results:

stoichiometry N [2]: 5 | stoichiometry N [3]: 5
Molecule: KR2_(278) (domain or fragment)

stoichiometry N [5]: 3 | stoichiometry N [6]: 3
Molecule: Parvularcula oceani xenorhodopsin (natural protein)

stoichiometry N [7]: 5 | stoichiometry N [8]: 5
Molecule: Krokinobacter eikastus rhodopsin 2 (natural protein)

stoichiometry N [9]: 3 | stoichiometry N [10]: 3
Molecule: Anabaena sensory rhodopsin (natural protein)

stoichiometry N [11]: 5
Molecule: Fulvimarina rhodopsin (natural protein)

stoichiometry N [13]: 3
B4: Natronomonas pharaonis sensory rhodopsin II, P42196 1-239 (natural protein)
chain: MVGLTTLFWLGAIGMLVGTLAFAWAGRDAGSGERRYYVTLVGISGIAAVAYVVMALGVGWVPVAERTVFAPRYIDWILTTPLIVYFLGLLAGLDSREFGIVITLNTVVMLAGFAGAMVPGIERYALFGMGAVAFLGLVYYLVGPMTESASQRSSGIKSLYVRLRNLTVILWAIYPFIWLLGPPGVALLTPTVDVALIVYLDLVTKVGFGFIALDAAATLRAEHGESLAGVDTDAPAVAD
modifications: here or on the partner: retinal chromophore; retinal chromophore
